Experimental data from patent publication US20150315241A1, “Antibiotic Peptides” (priority 2007, published 2015).
[ ]: non-standard residue; d: D form. Orn = NCCC[C@H](N)C(=O)O

Experiments:
[1] = In vivo distribution of fluorescent-labelled peptide (imaging); parameters: species or system female Balb/c mice; details: mice, 40 μg i.p., 60-65 min
Procedure: The in vivo distribution was measured in mice using fluorescent-labelled peptides derivatives.
Near-infrared absorbing fluorescent dye Dy675 (Dyomics GmbH, Jena, Germany) was activated with DIC and coupled to the N-terminus of the peptide derivatives after completion of the solid phase peptide synthesis (see example 1). Afterwards the peptides were cleaved with TFA and purified by RP-HPLC (see example 1).
Forty μg of the labelled peptide derivatives were injected subcutaneously (sc) or intra-peritional (ip) into shaved and isoflurane anesthetized female Balb/c mice. The animals were placed into the fluorescence microscope chamber under continuous isoflurane exposure. Fluorescence exposure pictures were taken with an IVIS microscope set to 695 nm emission wavelength at every minute in the first 10 min after peptide addition and every 5 min afterwards until 65 min.

human erythrocytes = test: Hemolytic assay; type: cell-based; details: 1 h 37° C., relative to 0.1% Triton X-100, peptide concentration 600 μg/mL
Procedure: To determine whether the peptides and peptide derivatives according to the invention were toxic to mammalian cells, several peptides and peptidomimetics from Example 1 above, a positive control, and a negative control were examined for hemolytic activity. The hemolytic activity was assayed with human erythrocytes. A human erythrocyte concentrate was provided in sodium chloride […]-glucose-mannitol buffer from the Leipzig University Hospital (Leipzig, Germany). The erythrocytes were centrifuged at 1000 G and washed three times with 10 volumes of cold phosphate-buffered saline (PBS, pH 7.4). The erythrocytes were diluted to a final concentration of 1% in PBS. One hundred microliters of this human erythrocyte suspension in PBS was added to each well of a V-shaped 96-well polypropylene microtiter plate (Greiner Bio-One GmbH). […] The microtiter plate was incubated at 37° C. for 1 h and subsequently centrifuged for 10 min at 1000 G. One hundred microliters of the supernatant was transferred to a 96-well flat-bottomed polystyrene microtiter plate (Greiner Bio-One GmbH) and the absorption at 405 nm recorded in a micro plate spectrophotometer (Tecan) to evaluate the heme release. […] The hemolysis percentage was calculated by the following equation[44]: ([…])×100% with E=Extinction at 405 nm All hemolytic assays were performed in duplicates. […]

Substance: 160 (Dy675-[Orn]NNRPVYIPRPRPPHPRL-NH2) [compound 160]
- in vivo biodistribution (fluorescence imaging) [1]: enriched in brain, liver, and both kidneys

Substance: (p-tert-Octylphenoxy)polyethoxyethanol [Triton X-100 ®]
- Haemolysis rate (human erythrocytes): 100%
